This assay deals with 5768-p27 V3 peptide (HIV-1 clade B isolate 5768-p27). The assay can be described thus: SPR.

This is an account of results in article PMC13483476 (2026).

B1: 19b antigen-binding fragment (Fab) (Fab, V domains shown)
VH: EVQLVQSGGALIQPGGSLRLSCAASGFTFVDYAMSWVRQAPGKGLQWVSTIIGSGADTYYTDSVKGRFTISRDNSNNTVHLQMNSLRADDTALYYCVRGVFDLWGQGTLVTVSS
VL: DIVLTQSPPSLSASVGDRVTITCQASQDISDHLSWFQQKPGKAPKLLVYGVSSLEAGVPSRFSVSGSGTHFTFTVNGLQPEDLATYFCQQYDDLPWTFGPGTVVEVK
On to B1, for which the koff (commonly the rate constant with which the complex falls apart) is 0.000147 s⁻¹.
